According to patent US10513540B2, “Modulation of the immune response” (THE BRIGHAM AND WOMEN'S HOSPITAL, INC., priority 2012, dated 2019):

Legend:
TIM3 = target: T1, TIM3 (Mus musculus, UniProt Q8VIM0); assay: Staining of primary T cells with mouse CEACAM1 N-domain Fc fusion protein with or without blocking antibody (FIG. 9); assay type: binding; details: primary naive T cells of TIM3 Tg mice
T1 construct: expressed in transfected cells; also crossed to Ceacam1-/-), with the transgene under the human CD2 promoter
Excerpt: Primary naïve T cells were isolated from B6 (WT) mice with transgenic (Tg) overexpression of TIM3 in T cells, wherein TIM3 is controlled by the human CD2 promotor, and TIM3 Tg mice crossed to […] (knockout) or […]. Primary T cells were stained with a mouse N-domain as an Fc fusion protein in the presence or absence of varying concentrations of a TIM3 specific monoclonal antibody, 2C12, to block binding. *, P<0.05; **, P<0.01

CD4+T-cells = assay: In vitro re-stimulation of CD4+ T-cells from SEB-immunized mice, TIM3 expression by FACS; assay type: cell-based, mouse
TIM3 on primary T cells = assay: In vivo administration of N-CEACAM1-Fc, then in vitro stimulation of lymph node cells with anti-CD3 or SEB (FIGS. 10A-10B); parameters: species or system mouse; details: 100 μg intraperitoneally, lymph nodes at 10 days
CD4+Vβ8+ T cells = details: SEB treatment in presence or absence of fusion protein

T1 sequence (Q8VIM0 20-281): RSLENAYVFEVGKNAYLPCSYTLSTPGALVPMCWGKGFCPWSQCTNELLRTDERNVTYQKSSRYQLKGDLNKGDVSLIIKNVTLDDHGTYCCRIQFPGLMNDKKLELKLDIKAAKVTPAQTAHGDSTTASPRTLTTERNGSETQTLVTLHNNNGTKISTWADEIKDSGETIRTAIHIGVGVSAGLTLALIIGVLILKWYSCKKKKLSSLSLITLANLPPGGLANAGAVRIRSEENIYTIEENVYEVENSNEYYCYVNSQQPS

B1: CEACAM1-Fc fusion protein: mouse CEACAM1 N-domain as an Fc fusion protein; Fc for fusion protein is human (protein)
chain: EVTIEAVPPQVAEDNNVLLLVHNLPLALGAFAWYKGNTTAIDKEIARFVPNSNMNFTGQAYSGREIIYSNGSLLFQMITMKDMGVYTLDMTDENYRRTQATVRFHVHP
modifications: left off: a dimerising Fc or GST
notes: mouse CEACAM1 N-domain as an Fc fusion protein; Fc for fusion protein is human
TIM3
  Binding to TIM3 on primary transgenic T cells: binds in trans to TIM3
CD4+T-cells; SEB-responsive T-cells, CEACAM1 ligation with fusion protein, in vitro re-stimulation
  TIM3 up-regulation in response to SEB re-stimulation (Mean Fluorescence): 29%
CD4+T-cells; in vitro, 0.5 mg/ml, 48 hours
  TIM3 expression on gated CD4+ T-cells: up-regulates TIM-3 in vitro
TIM3 on primary T cells
  Induction of tolerance (proliferation, interferon gamma production): induce tolerance
CD4+Vβ8+ T cells
  T cell receptor engagement by SEB (deletion of CD4+Vβ8+ T cells): not significantly influenced
